Data reported in the supplement of paper PMC9876800.

system: peptide library, one residue held at a place counted from the S/T acceptor; assay: relative phosphorylation of the sub-library (ratio to the mean residue at this position); human; higher = residue favoured; conditions: G fixed; at -3
In short: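 Relative sub-library phosphorylation is the ratio of each sub-library's signal to the mean residue at that position. The signal came from phosphorimaging of spots on streptavidin membranes, quantified by densitometry, after purified recombinant kinases reacted with biotinylated degenerate peptide sub-libraries in 384-well plates. Reactions held 50 μM peptide and 50 μM ATP spiked with γ-32P-ATP for 90 min under kinase-specific conditions.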

Sequence of MELK, construct: aa1-340 (Q14680 1-340, looked up): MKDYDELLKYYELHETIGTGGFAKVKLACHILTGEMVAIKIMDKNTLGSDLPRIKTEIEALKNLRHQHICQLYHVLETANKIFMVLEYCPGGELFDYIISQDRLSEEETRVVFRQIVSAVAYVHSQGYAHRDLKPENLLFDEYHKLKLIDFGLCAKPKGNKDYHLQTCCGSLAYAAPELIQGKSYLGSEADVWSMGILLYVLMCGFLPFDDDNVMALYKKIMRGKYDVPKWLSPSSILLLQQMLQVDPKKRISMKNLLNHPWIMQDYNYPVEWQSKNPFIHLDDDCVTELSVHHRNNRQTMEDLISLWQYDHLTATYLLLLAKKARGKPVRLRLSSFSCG
Sequence of PAK3, construct: Full length (O75914 whole entry, looked up): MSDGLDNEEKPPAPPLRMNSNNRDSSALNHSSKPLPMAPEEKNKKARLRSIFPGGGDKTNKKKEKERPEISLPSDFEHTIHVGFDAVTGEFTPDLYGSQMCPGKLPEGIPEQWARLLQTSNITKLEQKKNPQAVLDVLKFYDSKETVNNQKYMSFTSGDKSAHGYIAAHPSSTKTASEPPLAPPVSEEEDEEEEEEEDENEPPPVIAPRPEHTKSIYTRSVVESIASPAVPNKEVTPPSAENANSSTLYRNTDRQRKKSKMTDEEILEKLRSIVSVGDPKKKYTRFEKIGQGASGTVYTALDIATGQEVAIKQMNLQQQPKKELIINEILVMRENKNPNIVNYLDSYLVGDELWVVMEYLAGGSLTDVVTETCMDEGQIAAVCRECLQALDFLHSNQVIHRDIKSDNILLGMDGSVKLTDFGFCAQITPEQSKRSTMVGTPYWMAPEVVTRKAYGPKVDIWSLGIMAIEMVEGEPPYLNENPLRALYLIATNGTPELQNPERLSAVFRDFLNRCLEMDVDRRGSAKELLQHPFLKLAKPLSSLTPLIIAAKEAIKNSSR
Sequence of PRPF4B, construct: aa519-end (Q13523 519-1007, looked up): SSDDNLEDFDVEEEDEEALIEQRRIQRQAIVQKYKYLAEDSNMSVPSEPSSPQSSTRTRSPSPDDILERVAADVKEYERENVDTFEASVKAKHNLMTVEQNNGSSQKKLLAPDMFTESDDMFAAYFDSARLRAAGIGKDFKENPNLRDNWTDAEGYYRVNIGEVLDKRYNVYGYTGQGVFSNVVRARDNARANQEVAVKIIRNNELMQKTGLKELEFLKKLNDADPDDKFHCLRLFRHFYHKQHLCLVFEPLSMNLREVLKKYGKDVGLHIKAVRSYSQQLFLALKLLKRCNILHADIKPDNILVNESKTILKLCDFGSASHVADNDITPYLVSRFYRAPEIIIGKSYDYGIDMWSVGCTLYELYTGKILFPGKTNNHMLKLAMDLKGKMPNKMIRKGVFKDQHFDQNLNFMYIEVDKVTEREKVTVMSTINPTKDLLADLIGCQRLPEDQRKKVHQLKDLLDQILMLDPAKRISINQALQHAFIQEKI
Sequence of TTK, construct: Full length (P33981 whole entry, looked up): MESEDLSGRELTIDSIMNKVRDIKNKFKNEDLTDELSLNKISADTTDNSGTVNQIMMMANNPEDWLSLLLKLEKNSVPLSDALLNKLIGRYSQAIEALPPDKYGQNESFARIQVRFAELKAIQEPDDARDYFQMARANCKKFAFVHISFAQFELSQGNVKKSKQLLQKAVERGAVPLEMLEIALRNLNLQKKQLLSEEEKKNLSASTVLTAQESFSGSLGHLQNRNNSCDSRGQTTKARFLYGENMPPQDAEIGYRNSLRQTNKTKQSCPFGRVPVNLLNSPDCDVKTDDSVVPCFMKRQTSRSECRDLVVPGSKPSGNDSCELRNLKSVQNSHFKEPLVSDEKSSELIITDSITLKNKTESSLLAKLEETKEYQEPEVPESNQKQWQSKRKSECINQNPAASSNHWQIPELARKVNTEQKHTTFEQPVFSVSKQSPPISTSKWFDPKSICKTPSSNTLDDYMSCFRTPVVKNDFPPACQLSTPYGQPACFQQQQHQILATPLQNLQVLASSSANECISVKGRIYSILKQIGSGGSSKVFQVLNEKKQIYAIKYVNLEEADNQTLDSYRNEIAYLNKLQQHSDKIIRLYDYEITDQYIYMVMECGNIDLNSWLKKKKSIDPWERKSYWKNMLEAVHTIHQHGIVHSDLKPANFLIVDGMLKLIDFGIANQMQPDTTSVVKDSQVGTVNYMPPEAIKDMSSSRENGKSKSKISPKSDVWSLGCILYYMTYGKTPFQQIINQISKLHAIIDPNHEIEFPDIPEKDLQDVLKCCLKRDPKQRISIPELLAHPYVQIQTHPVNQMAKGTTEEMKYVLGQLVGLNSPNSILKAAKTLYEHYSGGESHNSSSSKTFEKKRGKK
Sequence of GRK5, construct: Full length (P34947 whole entry, looked up): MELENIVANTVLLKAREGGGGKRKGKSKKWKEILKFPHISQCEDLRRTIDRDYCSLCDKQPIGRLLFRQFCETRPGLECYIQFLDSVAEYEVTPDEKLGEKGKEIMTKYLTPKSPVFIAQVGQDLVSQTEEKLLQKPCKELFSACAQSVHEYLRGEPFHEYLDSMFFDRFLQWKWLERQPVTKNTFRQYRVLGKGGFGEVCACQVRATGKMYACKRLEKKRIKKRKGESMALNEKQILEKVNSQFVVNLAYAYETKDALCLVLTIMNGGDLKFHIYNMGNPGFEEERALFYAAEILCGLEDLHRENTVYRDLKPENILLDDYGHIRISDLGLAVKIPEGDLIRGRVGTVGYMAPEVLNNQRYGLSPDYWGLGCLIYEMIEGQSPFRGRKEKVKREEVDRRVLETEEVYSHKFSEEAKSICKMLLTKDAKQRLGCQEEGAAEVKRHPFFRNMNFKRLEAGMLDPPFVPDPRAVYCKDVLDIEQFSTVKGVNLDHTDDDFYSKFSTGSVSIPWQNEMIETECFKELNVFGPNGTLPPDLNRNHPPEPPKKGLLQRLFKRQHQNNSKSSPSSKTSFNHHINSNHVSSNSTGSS
Sequence of MASTL, construct: Full length (Q96GX5 whole entry, looked up): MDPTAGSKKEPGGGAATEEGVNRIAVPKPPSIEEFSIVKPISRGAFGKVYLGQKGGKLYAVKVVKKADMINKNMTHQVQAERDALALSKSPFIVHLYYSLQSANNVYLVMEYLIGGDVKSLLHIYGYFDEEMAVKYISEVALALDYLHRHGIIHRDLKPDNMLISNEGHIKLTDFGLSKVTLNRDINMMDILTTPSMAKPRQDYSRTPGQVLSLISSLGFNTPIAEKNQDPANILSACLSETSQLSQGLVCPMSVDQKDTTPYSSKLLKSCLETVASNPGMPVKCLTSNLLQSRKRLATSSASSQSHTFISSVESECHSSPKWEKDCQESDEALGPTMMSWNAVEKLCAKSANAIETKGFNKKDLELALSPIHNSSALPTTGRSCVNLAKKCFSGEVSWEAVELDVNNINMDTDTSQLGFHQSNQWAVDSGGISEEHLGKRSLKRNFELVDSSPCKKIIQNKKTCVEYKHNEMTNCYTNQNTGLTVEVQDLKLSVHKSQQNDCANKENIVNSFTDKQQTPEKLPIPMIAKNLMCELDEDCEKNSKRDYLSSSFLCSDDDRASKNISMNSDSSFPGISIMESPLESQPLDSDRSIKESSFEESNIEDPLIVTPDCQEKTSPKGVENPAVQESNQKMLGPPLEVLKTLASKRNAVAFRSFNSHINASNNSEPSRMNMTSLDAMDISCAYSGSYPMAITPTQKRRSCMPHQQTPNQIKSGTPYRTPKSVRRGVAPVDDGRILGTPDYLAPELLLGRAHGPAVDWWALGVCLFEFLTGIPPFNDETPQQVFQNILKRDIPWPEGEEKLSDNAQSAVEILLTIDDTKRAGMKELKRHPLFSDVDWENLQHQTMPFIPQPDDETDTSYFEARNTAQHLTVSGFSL
Sequence of CLK3, construct: Full length (P49761 whole entry, looked up): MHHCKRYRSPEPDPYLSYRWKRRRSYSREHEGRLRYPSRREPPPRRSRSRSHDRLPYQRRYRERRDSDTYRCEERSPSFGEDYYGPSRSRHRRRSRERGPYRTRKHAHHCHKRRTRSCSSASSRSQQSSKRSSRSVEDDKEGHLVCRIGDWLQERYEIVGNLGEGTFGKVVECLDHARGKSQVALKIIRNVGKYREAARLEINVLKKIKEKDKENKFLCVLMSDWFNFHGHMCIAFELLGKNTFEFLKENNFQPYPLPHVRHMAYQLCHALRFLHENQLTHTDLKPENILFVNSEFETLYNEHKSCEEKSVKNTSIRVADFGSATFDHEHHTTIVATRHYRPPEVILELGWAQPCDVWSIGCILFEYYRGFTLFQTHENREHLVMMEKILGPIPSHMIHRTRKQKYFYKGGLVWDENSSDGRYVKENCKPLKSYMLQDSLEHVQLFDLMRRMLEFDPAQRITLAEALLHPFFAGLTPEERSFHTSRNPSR
Sequence of RPS6KA6, construct: Full length (Q9UK32 whole entry, looked up): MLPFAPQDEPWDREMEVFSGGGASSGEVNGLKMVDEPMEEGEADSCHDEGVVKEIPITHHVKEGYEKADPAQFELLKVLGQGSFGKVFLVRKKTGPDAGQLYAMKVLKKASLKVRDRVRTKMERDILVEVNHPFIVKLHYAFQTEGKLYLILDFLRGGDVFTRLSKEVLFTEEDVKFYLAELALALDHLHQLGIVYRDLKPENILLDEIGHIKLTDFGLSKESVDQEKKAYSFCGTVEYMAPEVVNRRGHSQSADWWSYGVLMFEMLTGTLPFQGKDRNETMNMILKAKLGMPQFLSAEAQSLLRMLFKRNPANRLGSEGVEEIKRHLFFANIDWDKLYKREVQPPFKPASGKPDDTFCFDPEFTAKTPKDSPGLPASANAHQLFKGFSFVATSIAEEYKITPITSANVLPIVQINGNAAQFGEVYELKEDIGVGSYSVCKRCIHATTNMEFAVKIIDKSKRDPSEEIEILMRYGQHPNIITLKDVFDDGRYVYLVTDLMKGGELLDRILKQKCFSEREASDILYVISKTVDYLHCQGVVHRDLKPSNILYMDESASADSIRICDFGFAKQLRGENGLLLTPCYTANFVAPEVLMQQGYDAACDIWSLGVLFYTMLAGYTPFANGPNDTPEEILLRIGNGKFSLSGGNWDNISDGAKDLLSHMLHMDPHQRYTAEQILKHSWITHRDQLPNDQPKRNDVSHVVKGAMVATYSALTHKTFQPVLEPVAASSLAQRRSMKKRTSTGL

| Substance | relative phosphorylation |
| --- | --- |
| TTK, construct: Full length (from UniProt P33981) | 1.32 |
| PRPF4B, construct: aa519-end (from UniProt Q13523) | 8.94 |

same assay, conditions: G fixed; at -4

| Substance | relative phosphorylation |
| --- | --- |
| PAK3, construct: Full length (from UniProt O75914) | 1.32 |
| MASTL, construct: Full length (from UniProt Q96GX5) | 1.2 |
| MELK, construct: aa1-340 (from UniProt Q14680) | 1.24 |
| CLK3, construct: Full length (from UniProt P49761) | 1.1 |
| RPS6KA6, construct: Full length (from UniProt Q9UK32) | 1.13 |
| GRK5, construct: Full length (from UniProt P34947) | 1.08 |
| TTK, construct: Full length (from UniProt P33981) | 1.24 |
| PRPF4B, construct: aa519-end (from UniProt Q13523) | 1.77 |

same assay, conditions: G fixed; at -5

| Substance | relative phosphorylation |
| --- | --- |
| PAK3, construct: Full length (from UniProt O75914) | 1.24 |
| MASTL, construct: Full length (from UniProt Q96GX5) | 1.28 |
| MELK, construct: aa1-340 (from UniProt Q14680) | 0.884 |
| CLK3, construct: Full length (from UniProt P49761) | 0.928 |
| RPS6KA6, construct: Full length (from UniProt Q9UK32) | 0.932 |
| GRK5, construct: Full length (from UniProt P34947) | 1.16 |
| TTK, construct: Full length (from UniProt P33981) | 1.26 |
| PRPF4B, construct: aa519-end (from UniProt Q13523) | 0.991 |

same assay, conditions: H fixed; at +1

| Substance | relative phosphorylation |
| --- | --- |
| PAK3, construct: Full length (from UniProt O75914) | 1.09 |
| MASTL, construct: Full length (from UniProt Q96GX5) | 0.772 |
| MELK, construct: aa1-340 (from UniProt Q14680) | 0.994 |
| CLK3, construct: Full length (from UniProt P49761) | 0.735 |
| RPS6KA6, construct: Full length (from UniProt Q9UK32) | 0.943 |
| GRK5, construct: Full length (from UniProt P34947) | 0.895 |
| TTK, construct: Full length (from UniProt P33981) | 0.952 |
| PRPF4B, construct: aa519-end (from UniProt Q13523) | 0.596 |

same assay, conditions: H fixed; at +2

| Substance | relative phosphorylation |
| --- | --- |
| PAK3, construct: Full length (from UniProt O75914) | 1.57 |
| MASTL, construct: Full length (from UniProt Q96GX5) | 0.99 |
| MELK, construct: aa1-340 (from UniProt Q14680) | 1.02 |
| CLK3, construct: Full length (from UniProt P49761) | 0.971 |
| RPS6KA6, construct: Full length (from UniProt Q9UK32) | 2.06 |
| GRK5, construct: Full length (from UniProt P34947) | 0.953 |
| TTK, construct: Full length (from UniProt P33981) | 1.44 |
| PRPF4B, construct: aa519-end (from UniProt Q13523) | 1.07 |

same assay, conditions: H fixed; at +3

| Substance | relative phosphorylation |
| --- | --- |
| PAK3, construct: Full length (from UniProt O75914) | 1.2 |
| MASTL, construct: Full length (from UniProt Q96GX5) | 0.949 |
| MELK, construct: aa1-340 (from UniProt Q14680) | 1.47 |
| CLK3, construct: Full length (from UniProt P49761) | 1.07 |
| RPS6KA6, construct: Full length (from UniProt Q9UK32) | 1.29 |
| GRK5, construct: Full length (from UniProt P34947) | 1.05 |
| TTK, construct: Full length (from UniProt P33981) | 0.97 |
| PRPF4B, construct: aa519-end (from UniProt Q13523) | 1.01 |

same assay, conditions: H fixed; at +4

| Substance | relative phosphorylation |
| --- | --- |
| PAK3, construct: Full length (from UniProt O75914) | 1.14 |
| MASTL, construct: Full length (from UniProt Q96GX5) | 1.07 |
| MELK, construct: aa1-340 (from UniProt Q14680) | 1.04 |
| CLK3, construct: Full length (from UniProt P49761) | 0.869 |
| RPS6KA6, construct: Full length (from UniProt Q9UK32) | 1.12 |
| GRK5, construct: Full length (from UniProt P34947) | 0.964 |
| TTK, construct: Full length (from UniProt P33981) | 1.42 |
| PRPF4B, construct: aa519-end (from UniProt Q13523) | 1.02 |

same assay, conditions: H fixed; at -1

| Substance | relative phosphorylation |
| --- | --- |
| PAK3, construct: Full length (from UniProt O75914) | 1.31 |
| MASTL, construct: Full length (from UniProt Q96GX5) | 1.01 |
| MELK, construct: aa1-340 (from UniProt Q14680) | 1.25 |
| CLK3, construct: Full length (from UniProt P49761) | 0.799 |
| RPS6KA6, construct: Full length (from UniProt Q9UK32) | 0.934 |
| GRK5, construct: Full length (from UniProt P34947) | 1.7 |
| TTK, construct: Full length (from UniProt P33981) | 1.78 |
| PRPF4B, construct: aa519-end (from UniProt Q13523) | 0.844 |

same assay, conditions: H fixed; at -2

| Substance | relative phosphorylation |
| --- | --- |
| PAK3, construct: Full length (from UniProt O75914) | 1.61 |
| MASTL, construct: Full length (from UniProt Q96GX5) | 1.51 |
| MELK, construct: aa1-340 (from UniProt Q14680) | 1.33 |
| CLK3, construct: Full length (from UniProt P49761) | 0.732 |
| RPS6KA6, construct: Full length (from UniProt Q9UK32) | 1.04 |
| GRK5, construct: Full length (from UniProt P34947) | 0.88 |
| TTK, construct: Full length (from UniProt P33981) | 0.675 |
| PRPF4B, construct: aa519-end (from UniProt Q13523) | 0.907 |

same assay, conditions: H fixed; at -3

| Substance | relative phosphorylation |
| --- | --- |
| PAK3, construct: Full length (from UniProt O75914) | 1.32 |
| MASTL, construct: Full length (from UniProt Q96GX5) | 1.43 |
| MELK, construct: aa1-340 (from UniProt Q14680) | 1.18 |
| CLK3, construct: Full length (from UniProt P49761) | 0.607 |
| RPS6KA6, construct: Full length (from UniProt Q9UK32) | 0.564 |
| GRK5, construct: Full length (from UniProt P34947) | 1.17 |
| TTK, construct: Full length (from UniProt P33981) | 1.18 |
| PRPF4B, construct: aa519-end (from UniProt Q13523) | 0.507 |

same assay, conditions: H fixed; at -4

| Substance | relative phosphorylation |
| --- | --- |
| PAK3, construct: Full length (from UniProt O75914) | 1.29 |
| MASTL, construct: Full length (from UniProt Q96GX5) | 1.31 |
| MELK, construct: aa1-340 (from UniProt Q14680) | 1.11 |
| CLK3, construct: Full length (from UniProt P49761) | 0.885 |
| RPS6KA6, construct: Full length (from UniProt Q9UK32) | 0.915 |
| GRK5, construct: Full length (from UniProt P34947) | 0.932 |
| TTK, construct: Full length (from UniProt P33981) | 1.05 |
| PRPF4B, construct: aa519-end (from UniProt Q13523) | 1.01 |

same assay, conditions: H fixed; at -5

| Substance | relative phosphorylation |
| --- | --- |
| PAK3, construct: Full length (from UniProt O75914) | 1.1 |
| MASTL, construct: Full length (from UniProt Q96GX5) | 1.47 |
| MELK, construct: aa1-340 (from UniProt Q14680) | 0.871 |
